From a protein production outcome set (Wang et al. 2014)

Test: label from the status in PepcDB records

With “MKRRYSILIILLVAIFYRMITFRFKYLLGYDPYFHLAYIEEVNKVGKWINFLTFAGGPWGYQVKLFHPLGLWMTPLYLYKLLKVFGVSLTTTFKITPVIFGVLTVIFLYLSLLKLYDEKRAFFGGFFLAISYGHVFRSMANYYRGDNYMLFWYSVALLGISLALGIKKGKWKYKRLIFYTLPVLASGFSAIFWQAYYPIFAFLLSNALLLAVGAFILKKDKYLLDSIILILSTAFGVLLANYLGGIFGYGMLGYAKWLGKSVAKKLGLEFGYLKDVYLILHLKYLVPISLSFVLVLILLGFLTKDIRIRSLFLGIASFIGIIILFKRFEALKELSTGFGIFKEAPILETQPTSFKDLWAAFSLSFFLTPLFFIRFKKPRVEDFLTLGLIIPSVYMLKTWTRFLFIGSMAIAIMSGIGIVELYEAIKPRLNGKKALATGIITLVILPGVIAGLSFKEVCSLHPEMNEAWERALKWLKNNSNENDVILAWWDWGHFITYYARRSPIAQGGPSVGVALYLLGKLNENWAINLGVDYVIVSYYDFLKFGAILSTANLSKRYNIRGYGLVVLPLRASTGALIFENRGYRAIVRHDKSWNAVIIYNGQMIYPRKLYVEHKEGVQEIKPPESNSNTYLYVNLNYGYAIFMNGNAFNTTLVRLFITPEKPYKLVYSDGGLIKIFKLEHPNVKVERRESNVILNFENGTSLGLYFFLDNGTMVLSKWYNVKGKNEFIVPKVNASVARYVLKRGKKVVDRGVFRLSYN” as the sequence, how does the protein production read?
Its protein production is “failed”.

For “MKRSFSMMTDKRKLHRKKMKRKKRRRRLMFGCLLLFLVLAASGLGYASFLMHKMKTAMNEAYEEIGAKKNTGDHLDPKKDSFTVLFIGIDDSKTRNFKSDTRSDALILAAFNADTQLVKMVSIPRDSYVYIPCEDKYDKITHAHAYGGTKCTIESIERLFDIPIDYYVKMNFYAFIDVVDALGGIEVEVPYNIREKDAEDNRNAIVLKKGYQHLNGEEALALARTRKKDNDIERGKRQQQILQAILKKASHAGSISKYDDVIEAIGSNMKTNFTFDDIKALIYYVSTGNPLQTESLVLQGTDDNEGVYYYRLDEESVQQISDALRSQLHASAGTQLEKERN”, which protein production is on record?
The protein production was “failed”.

With “MKRSLRVGSVAGIGIFLHWTFLLLVAAIFAYYYVQSQSLGAALSGMGLILGVFVCVILHELGHALTARRFGVPTRSITLYPIGGLARLERIPSEPMKEFWIAIGGPAVNVVIAFALALVLLVTGGTLAPVALEAPGSHALASLMWINAVLAVFNMLPAFPMDGGRVLRALLALRWDYAQATQTAANVGQGMAVLFGLIGIMTWNPVLLFIALFVYVGAQQESKQAMYRAFTEGTPVREAMVTRFATLTVDDTLDDAVDALLAGTDHDFPVLEAGTVVGLLRRKQLIQALSEHGRDTPVAEVADADCFTTAPSAPLDEVFQQMNARSCSTVPVVDGGQLVGLLTLENVGELIMVSSALETRSHSRVPRDQLSEAPLRERPDGAASSGAPPVP” as the sequence, how does the protein production read?
The protein production was “failed”.

For “MKRTGILLVNLGTPKDSSKTEVRKYLKTFLSDRRVIKIHPIIWKPILNGIILNIRPKKSAKLYQKICTENGFPLLEYTEKQMENLKNICPEVEVTIGMSYSEPSIETALDTLLSKEIEELNVIPMYPQYSGTTVGSVFDSVMNYFIKSDRIVDIKFIRSFYNNPQYIDYFSKKINEALNESPIDAIVFSYHGIPMSYVKDGDNYPKECTKTTKLIMDKLGDIRYYQTYQSKFGPSEWLKPATDDTLKKLPSKGIKNILIVAPGFVVDCLETIEELEHENRNYFLENGGEVYKYVHPFNGDIEFAKLVKDIISL”, which protein production is on record?
Its protein production is “failed”.

With “MKRWQMEWLLVSVALVWGANYTIGKYGVAYMSSIQFNSLRFLVASPVLLLITFLMERSLRIDRKDWLRLVAVGIVGTTMYQTMFMLSVKYTSATNASLLIAMSPIFTGILAVLHKQERFSMKVQIGSIVAFIGAAFVLLTGHTGGTTYEYAWLGNIIGLVAAIAWGWYPILAQPLITKYSAMRVTSWSTLIGIVPLVVYCLFNVNTLTWPVDMPSWGSLAYSIVFATIFGLAMWYVGISKIGSTKVMVYMYLVPLFAVIFAAVTIGEQINMMQLVGGLIIFIGLYVVKKGGIQKPALNLKKVS” as the sequence, how does the protein production read?
Its protein production is “failed”.

Which protein production does the source give for “MKRYRTLLFDVDDTILDFQAAEALALRLLFEDQNIPLTNDMKAQYKTINQGLWRAFEEGKMTRDEVVNTRFSALLKEYGYEADGALLEQKYRRFLEEGHQLIDGAFDLISNLQQQFDLYIVTNGVSHTQYKRLRDSGLFPFFKDIFVSEDTGFQKPMKEYFNYVFERIPQFSAEHTLIIGDSLTADIKGGQLAGLDTCWMNPDMKPNVPEIIPTYEIRKLEELYHILN” here?
Its protein production is “not failed”.

Which protein production does the source give for “MKSGERSAVADRAQQIMSAARELLDAEGPDALSMRRIAERVGIRAPSLYKHFADKAALVAGLQAQGLTLLAEVQEAAEAEIGADPPLLVLGYAYRRHALASPHLYRITHGWPLARTALPEGLEDRAALPLARAVHGDINIARSFWAFAHGMVVLELDGRFPPGADLDVAWRTGCEAFTQAIRNRPHGSTA” here?
The protein production was “not failed”.

Which protein production does the source give for “MKSIVIYESVHHGNTEKVAKAMVEELNAECIRAQDLNLEKLKDYDLIGFGSGIFYNKFHKNILKLVGNIGKVNGKKAVVFSTSGQGRESSNKSLRKQLEEKGFKVIGSFACKGFDTFGPLKLLGGIGKGRPDQKDIEEAKKFVLGLEKNLLEHHHHHH” here?
Its protein production is “failed”.

Which protein production does the source give for “MKSLATDMTEGNVSKHLIKFAIPLILGNLFQLTYNASDSIIVGRFVGKNALAAVGIANPIMNIVMFFIVGICLGASVLMSEYYGAGNVKKLRREISTTVIAGFIFTVLIIIICVIFTEPILGLVKTPKEIIPEAAIYLRIIFISLIFTFFYNIYAAALRSIGDSKNPLLFLMISAVLNVVMDIVFVVWLKMGVAGSAIATSVAEMMSCVFCIVYVHFKIPILKFSFKDMVIDKGLLRSTVNYSWATAMQQTCLYVGKFMVQGAVNPLGVNSIAAFNAVNRVDDFAFAPEQSISNAMTTFLAQNRGANKYKRIKKGFLTGMKLETLYWCILVGIVYLGSTAIMKLFVSGSEVKVISIGSYYLKLMAFFYLLPSWTNGVQGYFRGMGDMKITLRSTFSQIVGRVAFSYILAPRIGMVGIAFSCLGGWIVMLAYEVPCLIKYRRNFNNKLSESSI” here?
The protein production was “failed”.

Which protein production does the source give for “MKSNDLVDQIMAQVIAKVSEHAPASSAQPSHAQPSYKQRDTAMAEKTCSLTEFVGTAIGDTVGLVIANVDSALLDAMKLEKRYRSIGILGARTGAGPHIMAADEAVKATNTEVVSIELPRDTKGGAGHGSLIIFGGDDVSDVKRAVEVALKELDRTFGDVYANEAGHIELQYSARASHALEKAFGTPLGRSCGVIVGAPASIGVLMADTAVKSANVDVVAYSSPAQGTSFSNEVILVISGDSGAVRQAVISAREIGKTVLATLGAEPKNDRPSYI” here?
The protein production was “failed”.

Which protein production does the source give for “MKSNRLIKRLDWYIIKKFLGTYVFAIALIISIAVVFDFNEKMDKLMEHEAPWDKIIFEYYMNFIPYFSNLFSPLFVFIAVIFFTSKLAENSEIIAMFSTGMSFKRMMRPYMISAAIIAAATFMMSSFIIPKGSVTRLNFEDKYIKPKKVNSVRNVQLEVDSGVIAYIDNYNDGMKTGNRFSLDKFVDKKLVSHLTARRITYDTTTVNKWTIHDYMVRELDGLKEKITKGDRIDSIINMDPSDFLIMKNQQEMLTSPELSEYIEKQKRRGFANIKEFEIEYHKRIAMSFASFILTIIGVSLSSRKTKGGMGLHLGIGLGLSFSYILFQTITSTFAINGNVPPAIAVWIPNILYAGIAFYLYQKAPK” here?
The protein production was “failed”.

With “MKSSNIGGQAVMEGIMMRHKDKYAIAVRRPDKEIELKVEDYKCTFGKAAFLKWPIIRGVVSFVDGLVVGTKCLMYSAEIAGDEEDEKEAAKNATLTEEELSAKKAKEAKQFQ” as the sequence, how does the protein production read?
The protein production was “not failed”.
